Experimental data as given in patent US20210395344A1.

B1: SARS-CoV-2 variant 1-31 (antibody, V domains shown)
VH: EVQLLESGGGLVQPGGSLRLSCAASGFTFSSYAMNWVRQAPGKGLEWVSAISGSGGSTFYADSVKGRFTISRDNSKNTLYLQMNSLRAEDTAVYYCTRPPYGDYGDYWGQGTLVTVSS
VL: QSALTQPASVSGSPGQSITISCTGTSSDVGKYNLVSWYQQHPGKAPKLMIYEGSQRPSGVSNRFSGSKSGNTASLTISGLQAEDEADYYCCSYAGSRTPVVFGGGTKLTVL
B2: SARS-CoV-2 variant 1-28 (antibody, V domains shown)
VH: EVQLLESGGGLVQPGGSLRLSCAASGFTFSSYGMSWVRQAPGKGLEWVSAISGSGGGTYYADSVKGRFTISRDNSKNTLYLQMNSLRAEDTAVYYCASSSSWQFDYWGQGTLVTVSS
VL: QSALTQPASVSGSPGQSITISCTGTSSGVGSYNLVSWYQQHPGKAPKLMIYEGSQRPSGVSNRFSGSKSGNTASLTISGLQAEDEADYYCCSYAGSSTHYVFGGGTKLTVL
B3: SARS-CoV-2 variant 1-4 (antibody, V domains shown)
VH: EVQLLESGGGLVQPGGSLRLSCAASGFTFSSQAMSWVRQAPGKGLEWVSAISGSGGGTYYADSVKGRFTISRDNSKNTLYLQMNSLRAEDTAVYYCAKDRRFGEFDPWGQGTLVTVSS
VL: QSALTQPASVSGSPGQSITISCTGTSSDVGTYNLVSWYQQHPGKAPKLMIYEGSQRPSGVSNRFSGSKSGNTASLTISGLQAEDEADYYCCSYAGSSSFVVFGGGTKLTVL
B4: SARS-CoV-2 variant 1-3 (antibody, V domains shown)
VH: EVQLLESGGGLVQPGGSLRLSCAASGFTFSSQAMSWVRQAPGKGLEWVSAISGSGGGTYYADSVKGRFTISRDNSKNTLYLQMNSLRAEDTAVYYCAKDRRFGEFDPWGQGTLVTVSS
VL: QSALTQPASVSGSPGQSITISCTGISSDVGSYNLVSWYQQHPGKAPKLMIYEGTKRPSGVSNRFSGSKSGNTASLTISGLQAEDEADYYCCSYAGSSSFVVFGGGTKLTVL
B5: SARS-CoV-2 variant 1-32 (antibody, V domains shown)
VH: EVQLLESGGGLVQPGGSLRLSCAASGFTFSSYAMYWVRQAPGKGLEWVSAISGSGGSTFYADSVKGRFTISRDNSKNTLYLQMNSLRAEDTAVYYCTRPPYGDYGDYWGQGTLVTVSS
VL: QSALTQPASVSGSPGQSITISCTGTSSDVGGYNLVSWYQQHPGKAPKLMIYEGNKRPSGVSNRFSGSKSGNTASLTISGLQAEDEADYYCCSYAGSSTFPVVFGGGTKLTVL
B6: SARS-CoV-2 variant 1-5 (antibody, V domains shown)
VH: EVQLLESGGGLVQPGGSLRLSCAASGFTFSSQAMSWVRQAPGKGLEWVSAISGSGGGTYYADSVKGRFTISRDNSKNTLYLQMNSLRAEDTAVYYCAKDRRFGEFDPWGQGTLVTVSS
VL: QSALTQPASVSGSPGQSITISCTGTSSGVGSYNLVSWYQQHPGKAPKLMIYEASKRPSGVSNRFSGSKSGNTASLTISGLQAEDEADYYCCSYAGSYTFAVFGGGTKLTVL
B7: SARS-CoV-2 variant 1-30 (antibody, V domains shown)
VH: EVQLLESGGGLVQPGGSLRLSCAASGFTFSSYAMTWVRQAPGKGLEWVSAISGSGGSTFYADSVKGRFTISRDNSKNTLYLQMNSLRAEDTAVYYCTRPPYGDYGDYWGQGTLVTVSS
VL: QSALTQPASVSGSPGQSITISCTGTSRDVGSYNLVSWYQQHPGKAPKLMIYEGTKRPSGVSNRFSGSKSGNTASLTISGLQAEDEADYYCCSYAGSRTPVVFGGGTKLTVL

target: COVID S1 RBD Fc fusion (Antigen 1) (SARS-CoV-2), P0DTC2; assay: phage ELISA; conditions: remark: other sources report otherwise

| Binder | specificity ELISA, fold over background (fold over background) | specificity ELISA, percent binding relative to Acro S1 |
| --- | --- | --- |
| B1 | 1.3 | 4.3% |
| B2 | 1.1 | 113% |
| B3 | 1.4 | 138% |
| B4 | 1.8 | 109% |
| B5 | 1.5 | 13.1% |
| B6 | 1.6 | 108% |
| B7 | 1.7 | 9.8% |
